Data from paper PMC2474558.

Molecular target: hDOP–C352I Gαi2
Experiment: radioligand binding

Substance “DADLE (D-Ala^2, Leu^5-enkephalin) (peptide)” has a pKi of 9.
